What was measured:
[1] = target: T1, human 41BB expressed on the cell surface (human, UniProt Q07011 24-255); assay: flow cytometry on 41BB expressing 293freestyle cells
T1 construct: whole, on cells; also called human 41BB on CHO cells; human 41BB on 293freestyle cells
Method: The PDL1-41BB targeting fusion proteins of the disclosure include a humanized anti-41BB sequence. In the studies presented herein, the PDL1-41BB targeting fusion proteins of the disclosure include a humanized anti-41BB sequence such as hzRH3v5-1 (SEQ ID NO: 30) and/or hzRH3v9 (SEQ ID NO: 82) bind both human and cynomolgus 41BB (FIGS. 9A, 9B), including human 41BB and cynomolgus 41BB expressed on the surface of CHO cells (FIGS. 9C, 9D). Binding was assessed by flow cytometry on 41BB expressing 293freestyle cells.

[2] = target: T2, recombinant human 41BB-mFc fusion protein (human, UniProt Q07011 24-186); assay: ELISA, recombinant 41BB-mFc immobilized on Medisorp plate
T2 construct: A fusion protein containing 41BB operably linked to a mouse Fc region
Method: Binding was assessed by ELISA wherein recombinant 41BB-mFc protein was immobilized on a Medisorp 96 well plate.
(§1) The 41BB-targeting single domain antibodies (sdAbs) referred to herein as 1G3 (SEQ ID NO: 432), 1H4 (SEQ ID NO: 436), 1H1 (SEQ ID NO: 440), 4H4 (SEQ ID NO: 16), 1H8 (SEQ ID NO: 444), 4F5 (SEQ ID NO: 23), and 4E1 (SEQ ID NO: 20) bind recombinant human 41BB (FIG. 2A), cynomolgus 41BB (FIG. 2B). The 41BB-targeting single domain antibodies (sdAbs) referred to herein as 4F5 (SEQ ID NO: 23), 4H04 (SEQ ID NO: 16), 4E01 (SEQ ID NO: 20), RH03 (SEQ ID NO: 25), and D1 (SEQ ID NO: 29) bind human 41BB expressed on the cell surface of CHO cells (FIG. 3). The 41BB-targeting sdAbs referred to herein as 4H04, RH03, and […]. For FIG. 2A, FIG. 2B, and FIG. 4, binding was assessed by ELISA wherein recombinant 41BB-mFc fusion protein (a fusion protein containing 41BB operably linked to a mouse Fc region) was immobilized on a Medisorp 96 well plate. For FIG. 3, binding was assessed by flow cytometry using 41BB expressing CHO cells, and the data is presented as median fluorescence intensity.

[3] = target: T1, human 41BB expressed on the cell surface; assay: flow cytometry on 41BB expressing CHO cells
Text: as §1

T1 sequence (Q07011 24-255): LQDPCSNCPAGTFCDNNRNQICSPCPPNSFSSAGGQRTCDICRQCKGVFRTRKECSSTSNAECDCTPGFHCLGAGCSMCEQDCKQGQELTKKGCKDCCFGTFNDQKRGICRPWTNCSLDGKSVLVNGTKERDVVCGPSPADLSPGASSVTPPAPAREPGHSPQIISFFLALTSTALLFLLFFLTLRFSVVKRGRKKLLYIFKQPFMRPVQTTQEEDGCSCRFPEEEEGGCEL

binding result [1] | binding result [2] | binding result [3] | Binder
binds | – | – | hzRH3v5-1 (VHH) VHH: EVQLLESGGGEVQPGGSLRLSCAASGFSFSINAMGWYRQAPGKRREFVAAIESGRNTVYAESVKGRFTISRDNAKNTVYLQMSSLRAEDTAVYYCGLLKGNRVVSPSVAYWGQGTLVTVKP
binds | – | – | hzRH3v9 (VHH) VHH: EVQLLESGGGEVQPGGSLRLSCAASGFSFSINAMGWYRQAPGKGREFVAAIESGRNTVYAESVKGRFTISRDNAKNTVYLQMSSLRAEDTAVYYCGLLKGNRVVSPSVAYWGQGTLVTVKP
– | binds | binds | 4H04 (VHH, also called 4H4) VHH: QVQLQESGGGLVQAGDSLRLSCAASGWAFDNYGMAWFRQAPGKEREFIGRLAWNGGSTDYADSVKGRFTISRDNPKNTLYLQMNNLKPEDTAVYYCARQRSYSGYGIRTPQTYDYWGQGTQVT
– | binds | binds | 4E01 (VHH, also called 4E1) VHH: QVQLQQSGGGLVQAGDSLRLSCAASGWAFGNYGMAWFRRAPGKEREFIGRLAWNGGSTDYVDSVKGRFTISRDNPKNTLYLQMNNLKPDDTAVYYCARQRSYSRYDIRTPQTYDYWGQGTQVT
– | binds | binds | 4F5 (VHH, also called 4F05) VHH: QVQLVQSGGGLVQPGGSLRLSCAASGWAFDNYGMAWFRQAPGKEREFIGRLAWNGGSTDYADSVKGRFTISRDNPKNTLYLQMNSLKPEDTAVYYCARQRSYSRYGIRAPQTYDYWGQGTQVT
– | binds | – | 1H8 (VHH, also called 41BB-targeting single domain antibody 1H8) VHH: EVQLVQSGGGLVQPGGSLRLSCAASGFTFSSYYMSWVRQAPGKGLEWVSTISTNTGGGSTYYAYADSVKGRFTISRDNAKNTLYLEMNSLKPEDTAQYYCVRTRWEGVYDYWGLGTQV
– | – | binds | D1 (VHH, also called 41BB-targeting single domain antibody D1) VHH: EVQPVQSGGGLVQAGESLRLSCAASATIFSNNAMGWYRQAPGKQRELVATITTGGFTNYRDSVKGRFDISRDNAKNTVYLQMNNLKPEDTAVYYCNVVLRYSRDYSYTTVKEYWGQGTQV
– | binds | – | 1H1 (VHH, also called 41BB-targeting single domain antibody 1H1) VHH: QVQLVQSGGGLVQPGGSLRLSCAASGFTFDDHAMSWVRQAPGKGLEWVSAISWNGHYTYYAESMKGRFAISRDNAKNTLYLQMNSLKSEDTAVYYCVKGWRGSYTRDRPFASWGQGTQV
– | – | binds | RH3 (VHH, also called RH03) VHH: QVQLQESGGGLVQPGGSLRLSCAVSGFSFSINAMGWYRQAPGKRREFLAAIDSGRNTVYAVSVKGRFTISRDNAKNTVYLQMNSLKPEDTAIYYCGLLKGNRVVSPSVAYWGQGTQVT
– | binds | – | 1H4 (VHH, also called 41BB-targeting single domain antibody 1H4) VHH: QVQLVQSGGGLVQPGGSLRLSCVVSGFTFRSYAMSWVRQAPGKGLEWVSTINSGESSTKYADSVKGRFTISRDDAKNTLYLQMSDLKPEDTAVYFCAKHRGWSTVDDINYWGKGTQV
– | binds | – | 1G3 (VHH, also called 41BB-targeting single domain antibody 1G3) VHH: QVQLVQSGGGLVQPGGSLRLSCAASGFTFSSYAMSWVRQAPGKGLEWVSAIPAGDGSTKYADSVKGRFTISRDNAKNTVYLQMDSLKPEDTAVYFCAKSRGWSTVDDMDYWGKGTQV

From patent US20170198050A1 (INHIBRX, published 2017)
